Assay [1] has as its target T1, AK564 (human, UniProt Q13261 31-96).
T1 construct: also called IL-15 masked non-cleavable AK564
Nature of the assay: SPR (Biacore 8K), multi-cycle kinetics, human CD215 immobilised by amine coupling, construct as analyte, 25 C. A general note: Surface plasmon resonance follows binding to a sensor surface in real time, without labels.

Assay [2] addresses T1, AK564. Nature of the assay: SPR (Biacore 8K), multi-cycle kinetics, human CD122 immobilised by amine coupling, construct as analyte, 25 C.

B1: Recombinant Human IL-15R alpha Fc chimera Protein (CD215) (Fc fusion, UniProt Q13261 31-205, looked up)
chain: ITCPPPMSVEHADIWVKSYSLYSRERYICNSGFKRKAGTSSLTECVLNKATNVAHWTTPSLKCIRDPALVHQRPAPPSTVTTAGVTPQPESLSPSGKEPAASSPSSNNTAATTAAIVPGSQLMPSKSPSTGTTEISSHESSHGTPSQTTAKNWELTASASHQPPGVYPQGHSDTT
notes: also called human CD215; Fc part of the bought chimera not given
For B1, the binding result in assay [1] is listed as “no binding (tested: Top 40 nM, 2x dilution)”.

B2: Recombinant Human IL-2 R beta Protein (CD122) (receptor, UniProt P14784 27-239, looked up)
chain: AVNGTSQFTCFYNSRANISCVWSQDGALQDTSCQVHAWPDRRRWNQTCELLPVSQASWACNLILGAPDSQKLTTVDIVTLRVLCREGVRWRVMAIQDFKPFENLRLMAPISLQVVHVETHRCNISWEISQASHYFERHLEFEARTLSPGHTWEEAPLLTLKQKQEWICLETLTPDTQYEFQVRVKPLQGEFTTWSPWSQPLAFRTKPAALGKD
notes: also called human CD122
With B2, the binding result in assay [2] is given as “no binding (tested: Top 500 nM, 2x dilution)”.

Values taken from patent US20230331799A1 (XILIO DEVELOPMENT, published 2023).
